Data from US20250136696A1 (HARBOUR BIOMED SHANGHAI, published 2025).

Legend:
Assay in all cases: ELISA on coated B7 family protein
[1] = molecular target: T1, Human B7-1/CD80 protein, Fc tag (Acro, B71-H5259) (human, UniProt P33681 35-242)
T1 construct: Bought
T1 sequence (looked up): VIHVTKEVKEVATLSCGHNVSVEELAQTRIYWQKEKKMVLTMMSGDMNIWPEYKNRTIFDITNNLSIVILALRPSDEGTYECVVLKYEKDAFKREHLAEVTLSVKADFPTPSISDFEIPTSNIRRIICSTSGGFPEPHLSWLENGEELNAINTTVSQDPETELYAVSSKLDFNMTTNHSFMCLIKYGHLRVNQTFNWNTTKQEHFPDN
Experimental: (§1) B7 family proteins (see Table 7 for details) were respectively diluted to […] with PBS, added into a 96-well plate (Corning, #9018) at 100 μl/well, and incubated at 4° C. overnight. After the liquid was discarded, the plate was washed 3 times with a PBST buffer (pH 7.4, containing 0.05% tween-20), 250 μl of blocking solution containing 2% BSA was added, and the plate was incubated for 1 hour at 37° C. The blocking solution was discarded, the plate was washed 3 times with PBST buffer (pH 7.4, containing 0.05% Tween-20), the antigen-binding protein to be tested was diluted to 2 concentrations of 10 nM and 1 nM, 100 μl of the diluted antigen-binding protein was added to each well, and the plate was incubated for 1 hour at 37° C., with the isotype antibody as the control. After the plate was washed 3 times with PBST buffer (pH 7.4, containing 0.05% Tween-20), goat anti-human HRP secondary antibody (Invitrogen, #A18805) diluted 5000 times was added, and the plate was incubated at 37° C. for 1 hour in the dark. After the plate was washed 3 times with PBST buffer (pH 7.4, containing 0.05% tween-20), TMB (Biopanda, #TMB-S-003) was added at 100 μl/well, and the plate was placed at room temperature for about 30 minutes in the dark; and a stop solution (BBI life sciences, #E661006-0200) was added to each well at 50 μl/well to stop the reaction, and the absorbance at 450 nm (OD450) was determined in a microplate reader (PerkinElemer, #Enspire).

[2] = molecular target: T2, Human B7-2/CD86 protein, Fc tag (Acro, CD6-H5257) (human, UniProt P42081 26-247)
T2 construct: Bought
T2 sequence (looked up): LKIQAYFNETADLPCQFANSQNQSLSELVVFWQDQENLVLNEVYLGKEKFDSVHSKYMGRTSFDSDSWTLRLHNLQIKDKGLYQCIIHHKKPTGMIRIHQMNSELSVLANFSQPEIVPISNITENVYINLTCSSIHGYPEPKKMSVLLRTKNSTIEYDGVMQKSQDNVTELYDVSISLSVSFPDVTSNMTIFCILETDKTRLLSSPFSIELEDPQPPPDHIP
Experimental: as §1

[3] = molecular target: T3, Human B7-DC/PD-L2/CD273 protein, recombinant (Fc tag) (Sino Biological, H10292-H02H) (human, UniProt Q9BQ51 20-219)
T3 construct: Bought
T3 sequence (looked up): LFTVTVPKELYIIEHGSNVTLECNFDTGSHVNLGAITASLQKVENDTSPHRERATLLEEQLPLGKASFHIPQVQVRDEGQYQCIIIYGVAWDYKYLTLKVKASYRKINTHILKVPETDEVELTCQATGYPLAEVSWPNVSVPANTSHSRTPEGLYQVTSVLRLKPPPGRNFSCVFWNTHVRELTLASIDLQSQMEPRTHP
Experimental: as §1

[4] = molecular target: T4, Human PD-L1/B7-H1 protein, His tag (Acro, PD1-H5229) (human, UniProt Q9NZQ7 19-238)
T4 construct: Bought
Experimental: as §1

[5] = molecular target: T5, CD275/ICOS ligand protein, human, recombinant (Fc tag) (Sino Biological, 11559-H02H) (human, UniProt O75144 19-258)
T5 construct: Bought; also called B7H2
T5 sequence (looked up): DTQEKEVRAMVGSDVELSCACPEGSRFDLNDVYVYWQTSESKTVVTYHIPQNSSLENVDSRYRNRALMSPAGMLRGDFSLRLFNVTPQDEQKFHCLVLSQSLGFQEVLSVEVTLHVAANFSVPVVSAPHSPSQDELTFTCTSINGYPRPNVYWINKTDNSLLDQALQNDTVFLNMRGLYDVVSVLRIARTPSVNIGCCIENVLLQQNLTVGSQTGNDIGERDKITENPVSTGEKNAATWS
Experimental: as §1

[6] = molecular target: T6, B7-H3/CD276 protein, human, recombinant (ECD, Fc tag) (Sino Biological, 11188-H02H) (human, UniProt Q5ZPR3 29-466)
T6 construct: extracellular domain; Bought
T6 sequence (looked up): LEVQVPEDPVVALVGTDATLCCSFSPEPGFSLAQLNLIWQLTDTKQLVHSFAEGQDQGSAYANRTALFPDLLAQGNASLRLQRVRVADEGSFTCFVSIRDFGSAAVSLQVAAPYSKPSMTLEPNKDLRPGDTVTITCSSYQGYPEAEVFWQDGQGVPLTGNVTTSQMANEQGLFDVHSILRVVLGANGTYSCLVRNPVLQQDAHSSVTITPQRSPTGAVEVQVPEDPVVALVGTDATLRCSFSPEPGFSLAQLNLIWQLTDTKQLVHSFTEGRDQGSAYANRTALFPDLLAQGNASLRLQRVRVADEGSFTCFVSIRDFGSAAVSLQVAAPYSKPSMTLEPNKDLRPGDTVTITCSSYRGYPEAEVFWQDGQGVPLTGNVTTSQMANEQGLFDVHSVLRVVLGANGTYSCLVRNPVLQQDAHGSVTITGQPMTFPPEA
Experimental: as §1

[7] = molecular target: T7, Recombinant human VISTA/B7H5/PD-1H Fc chimera (R&D, 7126-B7-050) (human, UniProt Q9H7M9 33-194)
T7 construct: Bought
Experimental: as §1

[8] = molecular target: T8, B7-H6 /NCR3LG1 protein, human, recombinant (Fc tag) (Sino Biological, 16140-H02H) (human, UniProt Q68D85 25-262)
T8 construct: Bought
T8 sequence (looked up): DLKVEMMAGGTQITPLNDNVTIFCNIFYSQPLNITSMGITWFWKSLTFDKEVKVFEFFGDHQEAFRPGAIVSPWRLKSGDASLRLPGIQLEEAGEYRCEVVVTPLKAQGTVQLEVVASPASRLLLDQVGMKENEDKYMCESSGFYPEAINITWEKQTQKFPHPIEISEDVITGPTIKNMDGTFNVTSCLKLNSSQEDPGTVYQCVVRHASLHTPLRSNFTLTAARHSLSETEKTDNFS
Experimental: as §1

Measured: binding result

T4 sequence (Q9NZQ7 19-238 limits assumed): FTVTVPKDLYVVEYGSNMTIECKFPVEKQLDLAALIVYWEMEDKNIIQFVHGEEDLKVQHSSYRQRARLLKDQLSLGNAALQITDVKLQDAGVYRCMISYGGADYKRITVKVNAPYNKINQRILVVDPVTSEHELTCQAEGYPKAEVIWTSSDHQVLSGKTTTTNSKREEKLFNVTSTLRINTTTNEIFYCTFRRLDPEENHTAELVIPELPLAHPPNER

B1: PR004260 (antibody, human IgG1, kappa, L234A L235A)
heavy: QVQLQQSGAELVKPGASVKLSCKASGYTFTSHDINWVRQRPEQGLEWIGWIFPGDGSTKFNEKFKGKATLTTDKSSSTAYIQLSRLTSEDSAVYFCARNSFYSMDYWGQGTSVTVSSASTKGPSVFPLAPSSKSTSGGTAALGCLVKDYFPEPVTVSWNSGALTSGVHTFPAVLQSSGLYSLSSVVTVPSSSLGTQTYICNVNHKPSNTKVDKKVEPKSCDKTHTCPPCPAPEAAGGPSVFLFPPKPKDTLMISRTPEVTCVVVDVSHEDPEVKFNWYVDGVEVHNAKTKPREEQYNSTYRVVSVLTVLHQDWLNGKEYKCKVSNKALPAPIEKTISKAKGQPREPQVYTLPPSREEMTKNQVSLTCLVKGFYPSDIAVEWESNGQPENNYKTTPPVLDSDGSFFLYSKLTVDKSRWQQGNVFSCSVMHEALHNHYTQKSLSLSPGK
light: DIVMSQSPSSLAVSAGEKVTMSCKSSQSLLNSRTRKNQLAWYQQKPGQSPKLLIYWASTRESGVPDRFTGSGSGTDFTLTISSVQAEDLAVYYCKQSYNLRTFGGGTKLEIKRTVAAPSVFIFPPSDEQLKSGTASVVCLLNNFYPREAKVQWKVDNALQSGNSQESVTEQDSKDSTYSLSSTLTLSKADYEKHKVYACEVTHQGLSSPVTKSFNRGEC
notes: Variant of PR003181; Human IgG1 with LALA mutation in Fc
no binding (tested: 10 nM): all assays above

B2: PR004263 (antibody, human IgG1, kappa, L234A L235A)
heavy: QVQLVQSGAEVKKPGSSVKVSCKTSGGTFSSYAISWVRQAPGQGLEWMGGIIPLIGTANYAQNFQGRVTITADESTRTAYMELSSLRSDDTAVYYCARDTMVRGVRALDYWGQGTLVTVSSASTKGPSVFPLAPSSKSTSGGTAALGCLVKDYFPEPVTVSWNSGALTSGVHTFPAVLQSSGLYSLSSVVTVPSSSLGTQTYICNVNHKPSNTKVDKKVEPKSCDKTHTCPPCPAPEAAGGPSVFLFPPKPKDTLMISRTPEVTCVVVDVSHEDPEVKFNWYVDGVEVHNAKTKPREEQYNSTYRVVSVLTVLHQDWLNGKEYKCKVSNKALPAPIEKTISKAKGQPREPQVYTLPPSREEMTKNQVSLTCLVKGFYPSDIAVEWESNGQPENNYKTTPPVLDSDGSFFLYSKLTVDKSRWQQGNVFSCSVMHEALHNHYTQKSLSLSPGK
light: DIQLTQSPSFLSASVGDRVTITCRASQGISSYFAWYQQKPGKAPKLLIYAASTLQSGVPSRFSGSGSGTEFTLTISSLQPEDFATYYCQHLNRYPWTFGQGTKVEIKRTVAAPSVFIFPPSDEQLKSGTASVVCLLNNFYPREAKVQWKVDNALQSGNSQESVTEQDSKDSTYSLSSTLTLSKADYEKHKVYACEVTHQGLSSPVTKSFNRGEC
notes: Variant of PR003264; Human IgG1 with LALA mutation in Fc
no binding (tested: 10 nM): all assays above
